The DeepSol protein solubility set

Assay: soluble on expression in E. coli; label from the status in PepcDB or PDB records

**Q.** For “MTDLSRMQGFADSAIPALEGRFFRPPLPEGYVPRSRLCQRLNEGLGGRLLLVCAPAGFGKSSLAVEFCQGLPDQWQNVWLGLSARDSEPGRFLERLLGSLQQFFPQLGAQAMGLLKMRQRHQPFAFEEWLDSLLDELAMHLMLSKPLLLVLDDYHLAQGPVLDRCLQFFLNHLPAGLVVMVTSRQRPDWHLARLRLTRQLLEINEQDLRLTQAESMAVLDRHSRSLDSEALQSLILRSEGWVAGLRFWLLAASEAGDESALSQALRGSEVLIREYLLEEVIDCLPADVQAFLYDTACLERFCAELCNAARDSHDSVEMLRYLQAHQVFLVPLDEQGRWFRYHHLFSDLLRARQTADAQTTRLHLNACRWFSAQGQLDEAVEQALRAGHLDVAANLVQNLSEEQLLAEQNVGMLLRWKMDLPDDLLTSTPRLIVLYAWALGLACQLDAAEELANQLSRFLPAPSATAQKSMLAQWLALSGIIARGRGDSEKTERYCREALLTLPQRRYGQRLVCLSTLANLAVAEGDLWQARVLNRDALELAQRVANPLFEALAHYDRARVLQARGEIIRALEEVRQGQQRLKGLSTVRLYAVRARLTLYEGYLLALRLQVDEGRALLLAGLAEARACRDISVLIGHCVIATMEGFAGRFAEAFAELAEAERLMHIWDVPPIYYLAMITLVKCELWLIQGRIDLAEAWLLRLTQTYNGGLGAAAPECHPQLSQHIELQRAVLERIQGDEVASEQRLQALEQRAQEVGAQLLRLIAMTQQIALLLNQGRQDEARTLLIRSVQASAGGALLPFRVLLAEHSQWLHEQLQLAPSCKLCNALREKFPACFKPAAPEPAHGSDCLSVRELGVLRLIAQGCSNQEISEQLFISLHTVKTHASHINSK”, which “soluble on expression in E. coli” value is on record?
**A.** Its value is “not soluble”.

**Q.** For “MKKTTLMSAVVATLSLVGCQSTTGSSDAQPEQTSHISQAVYEVEFHAAQSFLSQASQLEQSFADFCLAPKNDVEPVQQQWHSTMLAWMALQGQERGPATALEQSWNVQFWPDKKNTTGRKMSALTKADKVWTVEEISTQSVTVQGLGALEWLLYDDASTLNTNSNVCASGVAIAENLHDKAQIIANSWAENPWKSLQKTEWESEYISLLSNQLEYSMKKLSRPLAKIGHPRPYFSESWRSETSLSNLKANLESLHQLYFANGKGLDALLRAQGKTQLADRVAYQFDMALETWPEDKSLFSALQSVDGYRLVLAQYNKLEQLKYLIHEEVAIELGVVIGFNATDGD”, which “soluble on expression in E. coli” value is on record?
**A.** Its value is “not soluble”.

**Q.** With “VAASWREQFIRAEQTHWDAVTETASETYWEGGVLSDVTALAPDPATLFISNSMPIRDMDRFGGPRDADLTVLGNRGASGIDGITSTALGAGSATSDPLVLVTGDLAYYHDMNGLLALGRCAVDATVVLLNNDGGGIFHMLPIEDHPTFEDQFRTPHGLDFEPTEALYSLQFERVADRRQFRERFAESVQTDGTQVIEVRFDAGDSHAVRDQLTE” as the sequence, how does the “soluble on expression in E. coli” value read?
**A.** Its value is “not soluble”.

**Q.** Which “soluble on expression in E. coli” value does the source give for “MIQAVLFDLDGTLADTALDLGGALNTLLARHGLPAKSMDEIRTQASHGAAGLIKLGAGITPDHPDYARWRTEYLDEYDSRYAQDTTLF” here?
**A.** Its value is “not soluble”.

**Q.** For “MPGVTVKEIDQHVLTKNMAAFLKKSGKIFVPEQAVYMKTGKFKETAPTDDDWFYTRCASIMRHLYLRSPAGVGAFTKVYSGRKRNGVRPSKHCRSSDGCIRKALQALEAANMVERHPDGGRKLTPQGQRNLDRIANKIVAKQRERSAPVSMIITTLEHHHHHH”, which “soluble on expression in E. coli” value is on record?
**A.** Its value is “soluble”.

**Q.** For “MGSDKIHHHHHHMLRPHHSDNEQITLRSLLQSYRDQTTSNVVWGKIFEDFVTKYLMHDPLHYGRYEKVESYYEWAKERKDWNKNDIGIDLVAKLRHQESYVAIQCKFYKADHQISKKDIDSFIAESGKKIFKYRLLVDSTEVELSDNVNAMIKGQAIPIYRIDLRHMENSRIDWQTYATKKEVVLKSIKKPLPHQEPTMRPRAWIKAFSALAVASFK”, which “soluble on expression in E. coli” value is on record?
**A.** Its value is “not soluble”.

**Q.** With “GHHHHHHAIAENLYFQSMEYGHHARPDSKRPLDEGSPAAAGLTSKKANEALTRNRELTTVLVKNLPKSYNQNKVYKYFKHCGPIIHVDVADSLKKNFRFARIEFARYDGALAAITKTHKVVGQNEIIVSHLTECTLWMTNFPPSYTQRNIRDLLQDINVVALSIRLPSLRFNTSRRFAYIDVTSKEDARYCVEKLNGLKIEGYTLVTKVSNPLEKSKRTDSATLEGREIMIRNLSTELLDENLLRESFEGFGSIEKINIPAGQKEHSFNNCCAFMVFENKDSAERALQMNRSLLGNREISVSLADKKP” as the sequence, how does the “soluble on expression in E. coli” value read?
**A.** Its value is “soluble”.

**Q.** With “AHHHHHHGSGKLDWIREELEELKKKGLYVTIRVLQSAQGPWVIVNGKKVLNMCSNNYLGLAAHPKIKEAAIRAILDYGVGAGAVRTIAGTMDLHVELEEKLAKFKKREAAILFQSGYNANLGAISALLRKGEDGVFLSEELNHASIIDGMRLSGAPKVIYKHLDMEDLKKKLEENKDKKKKIIVTDGVFSMDGDLAPLPEIVELAEQYDAIVYVDDAHGEGVLGSHGRGIVDHFNLHDKVDFEMGTLSKAFGVIGGYVAGPEEAIEYLKQRARPFLFSSAPNPPDVAAAIAAVEILQKSDDLVKKLWDNTHFLQKGLRDLGYDLGNTKHPITPVMLYDEKLAQEFSRRLFEEYNIFAQAIVYPTVPLGTARIRLEPSAAHTKEDLKLVIDAFEDLGRKTGFLK” as the sequence, how does the “soluble on expression in E. coli” value read?
**A.** Its value is “soluble”.

**Q.** For “MSLGTNPFYKIKREGEISLKLKNQLFRLYFLLIYSSLENLQMADKKSPVAVGMTVTPSNQANFVDAGSTTLMNKPGEPTFKLGINLNKVEFKCTEDRKPISVNLKLHNPMAVTVSYKVRCTSADIFRVQPPLGFVKPNETVSIVIWYQNQDKKDAISKNHYFAFYHTTSDGRTARELWANSKVEGVRRLPASFLSTK”, which “soluble on expression in E. coli” value is on record?
**A.** Its value is “not soluble”.

**Q.** Which “soluble on expression in E. coli” value does the source give for “MKIGVDAGGTLIKIVQEKNGERTYSTRLTTEIEEVIQWLNQQDCNNINLTGGQAAMINEQLNCESRVFVEFDAAAKGLEILLEEQGHFLDDYIFTNVGTGTSLHFSNGKAQKRVGGIGTGGGMIQGLGYLLTGISNYKQLTDTAQNGNRDIIDLKVKHIYKDSEPPISGDLTAANFGNVLHHLDESFTDADKLASVIAVVGEVITTMSITVAREHNTKNVAYIGSSFHNNDLLKDVVKDYTVLRGCEPYYIEHGAFSGALGSIHLLEHHHHHH” here?
**A.** The value was “not soluble”.

**Q.** For “SMTTNVGDSTLADLLDHSCTSGSGSGLPFLVQRTVARQITLLECVGKGRYGEVWRGSWQGENVAVKIFSSRDEKSWFRETELYNTVMLRHENILGFIASDMTSRHSSTQLWLITHYHEMGSLYDYLQLTTLDTVSCLRIVLSIASGLAHLHIEIFGTQGKPAIAHRDLKSKNILVKKNGQCCIADLGLAVMHSQSTNQLDVGNNPRVGTKRYMAPEVLDETIQVDCFDSYKRVDIWAFGLVLWEVARRMVSNGIVEDYKPPFYDVVPNDPSFEDMRKVVCVDQQRPNIPNRWFSDPTLTSLAKLMKECWYQNPSARLTALRIKKTLTKID”, which “soluble on expression in E. coli” value is on record?
**A.** The value was “soluble”.

**Q.** Which “soluble on expression in E. coli” value does the source give for “MGSDKIHHHHHHMNQAMDTKQIAPFTLALPEGEALPLVCDSPHSGTFYPADFGAVVAPERLRGGEDTHVDALWEAVPRVGGTLLAATFPRVYIDPNRMLDDIDPAQLEGPWPTPLAPGEKTRLGYGLIWSNVDAATPIYDRKLTVAEVQRRINRYYRPYHAALTEAVEGAYQRFGAVWHLNLHSMPNNAYERLKIQSPRPLADFVLGDRDGTTCEPGLVDLVERELREKGYTVARNDPYKGVQLIAQIGRPAERRNSLQIEIRRPLYMEEGTRERNEGFATLQRDLTLLTLRIAEYVRRGV” here?
**A.** The value was “not soluble”.

**Q.** With “MGSDKIHHHHHHMSRFVVITAAQDFQRKVQSAVRGALHGTVQILPPSVMLGGPQELFGRLSGEPPEVLVLGPGLPGDEALKLATVFDLQYPEISLVLVEDMASEQVINAMRAGIRDIVSPSAEVSELRILLERACLASAGRRRGLVAAAGPERPAGRVIAVMSPKGGVGKTTVATNLAIGLGKIAPMGVVIVDLDVQFGDVATGLQLEPEHTLRDAVGGAAFQDSMVLKAFLTVHPSGIYALCAPNTPGEADHISGEAVSHLLNQMAAEFQYVVVDTTPGLGEHVLATLEQATDAVWVCGMDIPSIRGLHTSFEVLRELQLLPQGRHVVLNFADRRSGLTVQDVEATIGVPVDTVVPRSRAVPFSTNKGVPLLQDSSHDGAARAFAKLVERFDPKRATQPQKKVHRRMVIS” as the sequence, how does the “soluble on expression in E. coli” value read?
**A.** The value was “not soluble”.

**Q.** Which “soluble on expression in E. coli” value does the source give for “MTGQSTGTGEYSDFVAVFRDRYEKLAGKLRGRVNHRPTDAIENMGGGSDAALIGMVSDIRSTASGHWLVELEDTNGTFPCLVMKDRPIADLVQQLLMDEVIAVEGTLADDAGILFVDSLYFPDVPRTHNPSTADRHVQAALISDVHVGSQEFMEDAWHRFTDWLHTPEAEHVEYLLIAGDMVEGVGIYPEQDKELDIIDIYDQYRAFSEYLKEVPADMEIRMIPGNHDAVRLAEPQPGFDEELRDIMSAHDAQVHSNPSLVTVEGVTVLMYHGVSLDEVIAELPDEEASYEEPHRAMYQLLKKRHVAPQYGGHTRLAPEDRDYLVMEEVPDVFHTGHVHKLGWGEYHNVVALNSGCWQAQTEFQKSVNIDPDAGFAPILDLDTLEMTVRKFS” here?
**A.** Its value is “not soluble”.

**Q.** Which “soluble on expression in E. coli” value does the source give for “MSRRLFGRLREALNRASEHIARGIVDTLAYKELKPEDLEPVLDDILIDLVESDVALEAAESIVAGVKEGLTGYRVRRGEPVEKVVRDALRKALLTLLDPGPRPDLAAEARRRCGGRPLVILFLGVNGTGKTTTIAKVAYMLRKAGVTPVIAAADTFRAGAQEQLAVHAEKLGVPIVRGRYGGDPASVAYDAVKHAESRGFCAVLVDTAGRMHVDSNLVEELRKIVRVVKPDYKILVVDSLTGNDAVEQARLFDEAVGVDGVIVTKVDADPKGGTLVSVAHAIRKPILYIGTGQRYEDLRPFDPQKIVDQLLG” here?
**A.** Its value is “soluble”.

**Q.** With “GAADPVVVPANMEPLTIEGNRFVTLCIMIRTTPWEVSRDVKLHPRDEVDWHTLEGVRALREAFATNNPNGRLTWGFTMNALEDGRKNYREIRDYVVECQKKYGDEVTYFPGYFPAMYLPRERVNREMSEAIEIISKMVGNGYRPQSIMGGFLSADNLRYLAEKENIHVAHAVIWSQHNIDGGGADGSPSYPFYPSTEHFCKPAQGKSDFIDCVNLDGWTMDFICARRSGQTGHGIDGYNSRRGVGPIETYKGWGLDLGHREVMHTEAIHFDKGLELNGFGWVANIWEAQMVHEFGKDLICDAMKMWVTGTKERWPDTHFVTFGEFGELWRKQYKSNDDWNYRFVERGSGLGDSYNNLEIKWFMNKEFRLALLRDWHTKNSPAYVIDFTRYDLQAHEPADPSPEKPAKDWSLINKINQKALRPQDKPVLIDKLEKEDQDLIRKYYPELLK” as the sequence, how does the “soluble on expression in E. coli” value read?
**A.** The value was “soluble”.

**Q.** With “MGSDKIHHHHHHMSCLVLPLVSVGNIPQLSIDWLLNSQANEWEYLEALDSKYLVEFVGPLDRPEDGSDSLYKDADMKYSSALEVFYNKKRGLFAIQQRTPLVSVNYLNNFIVEIILPFLSKYNISEICIWDSLYAMEDENGVIVRPQEVYSLGEFYFDDEAELLSNLHLNDQESMVNNWLHFTPTSFQDKISVDQPIFKILFQILNASQRPKALRSIKYCSCLANEGDNSLDSQQFLQWIISQKVIKNAPPIVKFVRPISWQGAYGMADARDKFVDLYN” as the sequence, how does the “soluble on expression in E. coli” value read?
**A.** The value was “not soluble”.

**Q.** Which “soluble on expression in E. coli” value does the source give for “MIRPKPIAFEQPQTMPSILYPIHPPFRREELVTPTRENQIFKELLISISIYNSGEERLERITRPPLMASIPNGRFYNCRVRSSGSKTKAIFQQFKISVCSRE” here?
**A.** Its value is “not soluble”.

**Q.** Which “soluble on expression in E. coli” value does the source give for “MGSDKIHHHHHHMAYRSAPLYEDVIWRTHLQPQDPTLAQAVRATIAKHREHLLEFIRLDEPAPLNAMTLAQWSSPNVLSSLLAVYSDHIYRNQPMMIRENKPLISLWAQWYIGLMVPPLMLALLTQEKALDVSPEHFHAEFHETGRVACFWVDVCEDKNATPHSPQHRMETLISQALVPVVQALEATGEINGKLIWSNTGYLINWYLTEMKQLLGEATVESLRHALFFEKTLTNGEDNPLWRTVVLRDGLLVRRTCCQRYRLPDVQQCGDCTLK” here?
**A.** Its value is “not soluble”.

**Q.** Which “soluble on expression in E. coli” value does the source give for “MGSDKIHHHHHHMKVLFRSDSSSQIGFGHIKRDLVLAKQYSDVSFACLPLEGSLIDEIPYPVYELSSESIYELINLIKEEKFELLIIDHYGISVDDEKLIKLETGVKILSFDDEIKPHHCDILLNVNAYAKASDYEGLVPFKCEVRCGFSYALIREEFYQEAKENREKKYDFFICMGGTDIKNLSLQIASELPKTKIISIATSSSNPNLKKLQKFAKLHNNIRLFIDHENIAKLMNESNKLIISASSLVNEALLLKANFKAICYVKNQESTATWLAKKGYEVEYKY” here?
**A.** Its value is “not soluble”.
